We go through 2 proteins from paper PMC12154015, “A Novel Approach for the Activity Assessment of L-Asparaginase Formulations When Dealing with Complex Biological Samples” (International Journal of Molecular Sciences, 2025).

Holding throughout (assay): purified protein
Substrate in series [1]: Cc1cc(=O)oc2cc(NC(=O)C[C@H](N)C(=O)O)ccc12
The class given is biochemical, Rhodospirillum rubrum. The following applies: 37 °C, pH 7.4, table heading says in bovine serum, [S]0 = 1 mM.

Substrate in series [2]: NC(=O)C[C@H](N)C(=O)O
Type of series: biochemical, Rhodospirillum rubrum. Particulars: PBS 0.01 M, pH 7.4, 37 °C, [S]0 = 10 mM.

Substrate in series [3]: NC(=O)C[C@H](N)C(=O)O
Particulars: PBS 0.01 M, pH 7.4, 37 °C, [S]0 = 10 mM.

Substrate in series [4]: Cc1cc(=O)oc2cc(NC(=O)C[C@H](N)C(=O)O)ccc12
The class given is biochemical, Escherichia coli. The following applies: 37 °C, pH 7.4, table heading says in bovine serum, [S]0 = 1 mM.

B1: RrA; Rhodospirillum rubrum type I L-ASNase (Rhodospirillum rubrum ATCC 11170) (protein)
chain: MAVSPSPLRIFTAGGTIDKDYRLEENGLVVGDPFVAEVLKTARLAGAVSIVALSRKDSLDFTEADREAIGRAVGQAVEDHILLTHGTDTMVETARYLGGLPELAGKTVVLSGAMVPGRVGGSDAAFNIGFACAAALMLAPGVYIAMHGKVFDPAKTRKNRGLGRFEPIDDQE
notes: recombinant, native (unconjugated); 172 residues, monomer 18 kDa; tetramer/dimer
As to B1, the Km in “purified protein [1]” and in the series “purified protein [2]” was 4000 ± 300 µM in each case.

B2: EcA; E. coli L-ASNase (Veropharm) (Escherichia coli K-12) (protein)
chain: LPNITILATGGTIAGGGDSATKSNYTVGKVGVENLVNAVPQLKDIANVKGEQVVNIGSQDMNDNVWLTLAKKINTDCDKTDGFVITHGTDTMEETAYFLDLTVKCDKPVVMVGAMRPSTSMSADGPFNLYNAVVTAADKASANRGVLVVMNDTVLDGRDVTKTNTTDVATFKSVNYGPLGYIHNGKIDYQRTPARKHTSDTPFDVSKLNELPKVGIVYNYANASDLPAKALVDAGYDGIVSAGVGNGNLYKSVFDTLATAAKTGTAVVRSSRVPTGATTQDAEVDDAKYGFVASGTLNPQKARVLLQLALTQTKDPQQIQQIFNQY
notes: commercial native enzyme (Veropharm), unconjugated; monomer 37 kDa, 348 residues as printed (precursor length); tetramer
As for B2, the Michaelis-Menten constant (Km) in “purified protein [3]” and in the series “purified protein [4]” was 20 ± 3 µM each time.
